Common to all, as to settings: both partners purified
Test [1] addresses T1, recombinant bactericidal/permeability-increasing protein (rBPI) (human, UniProt P17213 32-487, labelled with NT647 (NHS labelling kit) in the MST experiments only).
T1 construct: also called rBPI NT647
T1 sequence (looked up): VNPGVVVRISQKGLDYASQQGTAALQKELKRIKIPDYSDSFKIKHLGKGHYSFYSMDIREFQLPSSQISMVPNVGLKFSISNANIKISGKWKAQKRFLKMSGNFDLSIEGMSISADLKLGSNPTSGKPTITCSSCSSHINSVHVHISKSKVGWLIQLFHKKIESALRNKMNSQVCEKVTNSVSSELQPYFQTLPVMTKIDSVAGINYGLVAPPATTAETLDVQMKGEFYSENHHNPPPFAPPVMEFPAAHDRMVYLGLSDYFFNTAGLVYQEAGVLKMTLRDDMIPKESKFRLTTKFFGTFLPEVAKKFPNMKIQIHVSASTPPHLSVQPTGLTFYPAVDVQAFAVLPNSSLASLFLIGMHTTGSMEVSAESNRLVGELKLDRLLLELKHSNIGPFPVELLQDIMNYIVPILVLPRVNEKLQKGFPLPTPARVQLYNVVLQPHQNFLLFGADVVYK
Nature of the test: NanoDSF (thermal shift). For orientation: Differential scanning fluorimetry follows unfolding on heating by fluorescence.

The target of test [2] is T1, recombinant …. Put plainly: MST.
Test [3] has as its target T1, recombinant …. Nature of the test: ELISA; BPI microtiter binding assay, competition: 20 nM BPI pre-incubated 30 min with increasing lipopeptide, loaded on LPS biotin (2 μg/ml) on streptavidin plates, 1 h 37°C; 150 mM NaCl, 50 mM HEPES, 1 g/l BSA; bound BPI detected with anti-human BPI antibody. A general note: In an ELISA, binding on a coated surface is turned into a signal by an enzyme label.

Ends that are not written are not given here.

The Kd is the equilibrium constant for the complex coming apart.

B1: (R)-Pam2CSK4 (peptide)
peptide: CSKKKK
modifications: not fully specified (residue 1); printed as (R)-Pam2CSK4
notes: also called di-acylated lipopeptide; source: synthetic peptide; bought: EMC Microcollections
As for B1, in test [1], the binding result is given as “binds”.

B2: (R)-Pam3CSK4 (peptide)
peptide: CSKKKK
notes: also called tri-acylated bLP; source: synthetic peptide; bought: EMC Microcollections
For the molecule B2, in test [2], the Kd is 162 ± 23.5 nM.

B3: PamCSK4 (peptide)
peptide: CSKKKK
modifications: not fully specified
notes: also called mono-acylated lipopeptide; source: synthetic peptide; bought: EMC Microcollections
B3: in test [3], the binding result is “binds”.

(Values after PMC6293271, “Bactericidal/Permeability-Increasing Protein Is an Enhancer of Bacterial Lipoprotein Recognition” (Frontiers in Immunology, 2018).)
